{
  "source": "patent US6727407",
  "proteins": {"B1": {"name": "CKA1 (α-subunit of Arabidopsis protein kinase CK2) (protein)", "chain": "MSKARVYTEVNVIRPKDYWDYESLIVQWGEQDDYEVVRKVGRGKYSEVFEGINVNSKEKCIIKILKPVKKKKIRREIKILQNLCGGPNIVKLLDVVRDQHSKTPSLIFEYVNSTDFKVLYPTLTDYDIRYYIYELLKALDFCHSQGIMHRDVKPHNVMIDHELRKLRLIDWGLAEFYHPGKEYNVRVASRYFKGPELLVDLQDYDYSLDMWSLGCMFAGMIFRKEPFFYGHDNQDQLVKIAKVLGTDELNAYLNKYQLELDPQLEALVGRHSRKPWSKFINADNQHLVSPEAIDFLDKLLRYDHQDRLTAKEAMAHAYFAQVRAAETSRMRSQ"}},
  "key": {"[1]": {"biological_target": "glutathione-S-transferase (GST) [GST: P08515]", "sequence (P08515 whole entry)": "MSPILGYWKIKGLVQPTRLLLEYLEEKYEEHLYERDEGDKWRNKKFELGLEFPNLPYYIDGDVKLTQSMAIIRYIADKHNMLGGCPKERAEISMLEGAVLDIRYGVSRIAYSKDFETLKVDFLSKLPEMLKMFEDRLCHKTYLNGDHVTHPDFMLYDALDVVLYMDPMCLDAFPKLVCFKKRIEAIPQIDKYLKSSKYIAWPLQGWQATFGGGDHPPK"}, "His-tagged CKB1, P40228": {"biological_target": "T1, His-tagged CKB1, P40228", "T1 chain": "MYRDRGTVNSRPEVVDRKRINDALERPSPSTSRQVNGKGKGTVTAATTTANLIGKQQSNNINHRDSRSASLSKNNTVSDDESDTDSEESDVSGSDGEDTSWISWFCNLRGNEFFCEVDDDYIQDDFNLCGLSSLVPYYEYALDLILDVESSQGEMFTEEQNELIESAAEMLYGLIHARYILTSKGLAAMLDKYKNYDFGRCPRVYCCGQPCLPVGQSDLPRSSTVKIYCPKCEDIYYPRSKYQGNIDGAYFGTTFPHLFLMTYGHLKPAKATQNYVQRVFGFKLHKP"}, "His-tagged CKB3": {"biological_target": "T2, His-tagged CKB3", "T2 chain": "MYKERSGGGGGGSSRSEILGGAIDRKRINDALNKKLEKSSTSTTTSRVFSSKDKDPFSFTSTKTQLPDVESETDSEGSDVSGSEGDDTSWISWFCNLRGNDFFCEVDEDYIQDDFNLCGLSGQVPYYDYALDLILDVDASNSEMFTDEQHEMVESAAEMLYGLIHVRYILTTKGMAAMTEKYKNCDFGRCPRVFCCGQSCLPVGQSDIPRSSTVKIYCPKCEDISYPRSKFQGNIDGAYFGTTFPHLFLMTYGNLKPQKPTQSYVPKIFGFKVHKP"}, "GST-LHY, Q6R0H1": {"biological_target": "T3, GST-LHY, Q6R0H1", "T3 chain": "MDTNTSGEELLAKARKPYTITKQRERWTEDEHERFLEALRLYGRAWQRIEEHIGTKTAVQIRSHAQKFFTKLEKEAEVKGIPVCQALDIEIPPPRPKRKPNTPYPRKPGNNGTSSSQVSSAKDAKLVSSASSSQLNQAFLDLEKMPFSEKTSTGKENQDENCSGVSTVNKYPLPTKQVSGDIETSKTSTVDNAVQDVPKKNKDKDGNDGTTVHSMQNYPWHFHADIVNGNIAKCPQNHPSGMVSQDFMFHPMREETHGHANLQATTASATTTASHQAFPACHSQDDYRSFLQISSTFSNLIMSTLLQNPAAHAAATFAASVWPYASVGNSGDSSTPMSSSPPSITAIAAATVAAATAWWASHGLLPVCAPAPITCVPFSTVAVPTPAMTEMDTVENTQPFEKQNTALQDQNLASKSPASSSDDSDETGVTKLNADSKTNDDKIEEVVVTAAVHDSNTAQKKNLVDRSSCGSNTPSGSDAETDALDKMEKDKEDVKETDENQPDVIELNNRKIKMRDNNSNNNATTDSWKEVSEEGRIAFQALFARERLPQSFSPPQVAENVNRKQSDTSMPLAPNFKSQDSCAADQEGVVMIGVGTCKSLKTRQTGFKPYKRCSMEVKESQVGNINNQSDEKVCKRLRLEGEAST"}},
  "data": [
    {"protein": "B1", "values": [
      {"measurement": "in vitro phosphorylation with [γ-32P]ATP, SDS-PAGE autoradiography", "setting": "[1]", "value": "a large amount of CKA1 (280 ng) phosphorylates GST-CCA1 but not GST"},
      {"measurement": "in vitro phosphorylation with [γ-32P]ATP, SDS-PAGE autoradiography", "setting": "GST-CCA1, P92973", "value": "a large amount of CKA1 (280 ng) phosphorylates GST-CCA1 but not GST"},
      {"measurement": "phosphorylation of GST-CCA1 by 14 ng of CKA1 with 35 ng of β-subunit", "setting": "His-tagged CKB1, P40228", "value": "a strong stimulation of the CCA1 phosphorylation was observed by adding either CKB1 or CKB3"},
      {"measurement": "phosphorylation of GST-LHY by CKA1 with added β-subunit", "setting": "His-tagged CKB1, P40228", "value": "this phosphorylation was enhanced by adding either CKB1 or CKB3"},
      {"measurement": "phosphorylation of GST-CCA1 by 14 ng of CKA1 with 35 ng of β-subunit", "setting": "His-tagged CKB3", "value": "a strong stimulation of the CCA1 phosphorylation was observed by adding either CKB1 or CKB3"},
      {"measurement": "phosphorylation of GST-LHY by CKA1 with added β-subunit", "setting": "His-tagged CKB3", "value": "this phosphorylation was enhanced by adding either CKB1 or CKB3"},
      {"measurement": "in vitro phosphorylation with [γ-32P]ATP, SDS-PAGE autoradiography", "setting": "GST-LHY, Q6R0H1", "value": "CKA1, the α-subunit of CK2, could phosphorylate LHY"}
    ]}
  ]
}
